In patent publication US20240376227A1 (published 2024):
Residue numbers refer to the chain shown, from its start.

How the values were obtained:
[1] = target: T1, recombinant human CK2α protein (human, UniProt P68400 1-391); assay: Western blotting on 0.05, 0.1 or 0.2 µg purified recombinant protein, antibody at 0.1 µg/mL
T1 construct: also called recombinant CK2α protein; Casein kinase 2 alpha 1
Description: Using mAb (6A3), mAb (10B2), mAb (15C1), mAb (16C2), mAb (19C2), and mAb (21B1) of the present invention, a purified product of recombinant CK2α protein was detected by Western blotting. The recombinant CK2α protein obtained by purifying the human-derived CK2α protein expressed by introducing the pGEX2T-CK2α gene in E. coli was used. The recombinant CK2α protein in an amount of 0.05 μg, 0.1 μg, or 0.2 μg was treated with SDS, electrophoresed, and was subjected to detection with six antibodies of the present invention at 0.1 μg/mL.

endogenous CK2α protein = target: T2, endogenous CK2α protein (UniProt P68400 1-391); assay: Western blotting after immunoprecipitation, MCF-7 and Flag-CK2α-expressing HEK293 cells
T2 construct: Native protein in cell lysates, chromatin fractions or fixed tissue sections of human origin; also called cellular endogenous CK2α protein; CK2α protein localized to the nucleolus
T2 sequence (P68400 whole entry): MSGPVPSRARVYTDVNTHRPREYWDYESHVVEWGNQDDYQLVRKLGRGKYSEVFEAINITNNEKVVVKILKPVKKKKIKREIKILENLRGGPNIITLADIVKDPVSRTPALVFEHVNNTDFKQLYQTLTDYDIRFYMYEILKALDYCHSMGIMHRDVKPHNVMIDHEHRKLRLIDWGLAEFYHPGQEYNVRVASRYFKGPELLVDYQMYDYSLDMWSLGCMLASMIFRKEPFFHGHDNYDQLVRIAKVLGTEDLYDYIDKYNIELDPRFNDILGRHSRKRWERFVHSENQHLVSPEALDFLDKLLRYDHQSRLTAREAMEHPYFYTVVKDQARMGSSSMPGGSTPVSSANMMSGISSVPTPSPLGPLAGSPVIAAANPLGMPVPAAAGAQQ
Description: A lysate was prepared from a breast cancer cell line MCF-7 (JCRB cell bank, #JCRB0134) and Flag-CK2α protein-expressing HEK293 cells. The MCF-7 cell line or Flag-CK2α-protein-expressing HEK293 cells were cultured, and washed with PBS, and then collected from the plate. A soluble fraction was partially purified from the cell lysate in accordance with common methods, and the anti-CK2α antibody (1 μg of six antibodies of the present invention or the control antibody) was added. Then, mixing was performed mildly at 4° C. for two hours, and then, Protein G-agarose beads were added, and a CK2α immune complex was formed. Then, the immunoprecipitates obtained by centrifugation were treated with SDS, and then electrophoresed. In Western blotting, the antibody of the present invention or the control antibody was used at 0.1 μg/mL.
The Western blotting performed with the control antibody detected, in the MCF-7 cell line, a band of the endogenous CK2α and in addition, a nonspecific band equal to or stronger than the band, and also detected, in the Flag-CK2α protein-expressing HEK293 cells, bands of the endogenous CK2α and Flag-CK2α, and in addition, a nonspecific band equal to or stronger than the bands.

T1 sequence (P68400 whole entry): as above

B1: mouse anti-CK2α monoclonal antibody clone 10B2, mAb (10B2) (antibody, mouse IgG2b, V domains shown)
VH: QVQLQQSGAELVRPGASVTLSCKASGYTFTDYQMHWVKQTPVHGLEWIGVIDPGTGGTAYNQKFKGKAILTADKSSNTAYMELRSLTSEDSAVYYCTGFVWGTGSPVTVSS
VL: DIQMTQSPSSLSASLGERVSLTCRASQDIGNNLNWLQQEPDGTIKRLIYATSSLDSGVPKRFTGSRSGSDYSLTISSLESEDFVDYYCLQYAIFPYTFGGGTKLEIKR
notes: As printed they appear to include a leader and the first constant region residues
binding result [1]: binds | binding result (endogenous CK2α protein): binds

B2: mouse anti-CK2α monoclonal antibody clone 15C1, mAb (15C1) (antibody, mouse IgG2b, V domains shown)
VH: B1 VH with Y32F, G66D, S105T, P106T
VL: B1 VL
notes: as for B1
binding result [1]: binds | binding result (endogenous CK2α protein): binds

B3: mouse anti-CK2α monoclonal antibody clone 16C2, mAb (16C2) (antibody, mouse IgG2b, V domains shown)
VH: B1 VH with T28K, I51L, K65R, N77S, S105T, P106T
VL: B1 VL with N31S, N32S, T63S
notes: as for B1
binding result [1]: binds | binding result (endogenous CK2α protein): binds
